Experimental data as given in PMC6573788.

B1: recombinant Asc1p-ybbR (S. cerevisiae RACK1 ortholog) (natural protein)
chain: MASNEVLVLRGTLEGHNGWVTSLATSAGQPNLLLSASRDKTLISWKLTGDDQKFGVPVRSFKGHSHIVQDCTLTADGAYALSASWDKTLRLWDVATGETYQRFVGHKSDVMSVDIDKKASMIISGSRDKTIKVWTIKGQCLATLLGHNDWVSQVRVVPNEKADDDSVTIISAGNDKMVKAWNLNQFQIEADFIGHNSNINTLTASPDGTLIASAGKDGEIMLWNLAAKKAMYTLSAQDEVFSLAFSPNRYWLAAATATGIKVFSLDPQYLVDDLRPEFAGYSKAAEPHAVSLAWSADGQTLFAGYTDNVIRVWQVMTAN

Columns and labels:
[1] = biological target: ΔRACK1 40S ribosomal subunit (human 40S subunit without RACK1) (human (endogenous in HAP1)) (UniProt P23396); test: native gel or EMSA
[2] = biological target: ΔRACK1 40S ribosomal subunit (human 40S subunit without RACK1) (human (endogenous in HAP1)) (UniProt P23396); test: FRET or BRET

Row | Molecule | t1/2 of RACK1 on the ribosome [1] [h] | kobs of the fast phase at 75 nM [2] [s⁻¹] | kon of the fast phase [2] [µM⁻¹ s⁻¹]
1 | native RACK1-ybbR expressed in ΔRACK1 HAP1 cells (from UniProt P63244 1-317) (natural protein) | 15 |  | 
2 | B1 |  | 0.2 | 2
